Laboratory results as given in EP4814000A1.

How the values were obtained:
003m-P215S-1×GCN4t (RSV) [1] = assay: flow cytometry, Expi293F cells, Lipofectamine 2000-mRNA; row 003m-P215S-1×GCN4t-opti1
003m-DS (RSV) = assay: flow cytometry, Expi293F cells transfected with the antigen's mRNA
008m-Cys (RSV) = assay: as above
010m-Cys (RSV) = assay: as above
008m-DS (RSV) = assay: as above
003m-ΔCys (RSV) = assay: as above
009m-Cys-ΔCys (RSV) = assay: as above
DS-Cav1 (RSV) = assay: as above
008m-Cys-ΔCys (RSV) = assay: as above
007m-Cys (RSV) = assay: as above
009m-Cys (RSV) = assay: as above
010m-DS (RSV) = assay: as above
010m-Cys-ΔCys (RSV) = assay: as above
009m-DS (RSV) = assay: as above
007m-Cys-ΔCys (RSV) = assay: as above
007m-DS (RSV) = assay: as above
[2] = target: wild-type RSV B F (RSV B); assay: flow cytometry, Expi293F cells, Lipofectamine 2000-mRNA; row WT-RQ2
[3] = target: wild-type RSV B F (RSV B); assay: flow cytometry, Expi293F cells, Lipofectamine 2000-mRNA; row WT-RQ3
[4] = target: RSV B-003m-P215S-1×GCN4t-C486D-C489D (RSV B); assay: flow cytometry, Expi293F cells, Lipofectamine 2000-mRNA; mRNA RQ3
[5] = target: RSV B-003m-P215S-1×GCN4t-C102A-C362S (RSV B); assay: as above
[6] = target: RSV B-003m-P215S-1×GCN4t-C155S-C290S (RSV B); assay: as above
[7] = target: RSV B-003m-P215S-1×GCN4t-D92E (RSV B); assay: as above
[8] = target: RSV B-003m-P215S-1×GCN4t-ori_linker (RSV B); assay: as above
[9] = target: RSV B-003m-P215S-1×GCN4t-G46S (RSV B); assay: as above
[10] = target: RSV B-003m-P215S-1×GCN4t-F190S (RSV B); assay: as above
[11] = target: RSV B-003m-P215S-1×GCN4t (RSV B); assay: as above
RSV B-003m-P215S (RSV B) = assay: as above
003m-P215S-1×GCN4t-3N = assay: flow cytometry, Expi293F cells, Lipofectamine 2000-mRNA
003m-P215S-1×GCN4t-2,3N = assay: as above
[12] = target: 003m-P215S-1×Fibritin-1N (RSV); assay: as above
003m-P215S-1×GCN4t (RSV) [13] = assay: flow cytometry, Expi293F cells, Lipofectamine 2000-mRNA; row 003m-P215S-1×GCN4t
003m-P215S-1×GCN4t (RSV) [14] = assay: flow cytometry, Expi293F cells, Lipofectamine 2000-mRNA
[15] = target: 010m-Cys-P215S-1×GCN4t (RSV); assay: as above
013m-Cys-P215S-1×GCN4t = assay: as above
[16] = target: 008m-Cys-P215S-1×GCN4t (RSV); assay: as above
[17] = target: 009m-Cys-P215S-1×GCN4t (RSV); assay: as above
011m-Cys-P215S-1×GCN4t = assay: as above
012m-Cys-P215S-1×GCN4t = assay: as above
[18] = target: 007m-Cys-P215S-1×GCN4t (RSV); assay: as above
[19] = target: wild-type RSV B F (RSV B); assay: flow cytometry, Expi293F cells, Lipofectamine 2000-mRNA; row WT-RQ1
003m-P215S-1×GCN4t (RSV) [20] = assay: flow cytometry, Expi293F cells, Lipofectamine 2000-mRNA; row 003m-P215S-1×GCN4t-opti5

AM14-AF488 (antibody) was tested. Which MFI (003m-P215S-1×GCN4t (RSV) [1]) did it give?
Its MFI is 3380.

What about the MFI (003m-DS (RSV)) of the same substance?
Its MFI is 10100.

And the MFI (008m-Cys (RSV))?
Its MFI is 258000.

And the MFI (010m-Cys (RSV))?
The MFI was 333000.

What about the MFI (008m-DS (RSV)) of the same substance?
Its MFI is 139000.

And the MFI (003m-ΔCys (RSV))?
The MFI was 8380.

What about the MFI (009m-Cys-ΔCys (RSV)) of the same substance?
Its MFI is 148000.

And the MFI (DS-Cav1 (RSV))?
Its MFI is 122000.

What about the MFI (008m-Cys-ΔCys (RSV)) of the same substance?
The MFI was 181000.

What about the MFI (007m-Cys (RSV)) of the same substance?
Its MFI is 610000.

And the MFI (009m-Cys (RSV))?
Its MFI is 247000.

And the MFI (010m-DS (RSV))?
Its MFI is 107000.

What about the MFI (010m-Cys-ΔCys (RSV)) of the same substance?
Its MFI is 153000.

What about the MFI (009m-DS (RSV)) of the same substance?
Its MFI is 147000.

And the MFI (007m-Cys-ΔCys (RSV))?
The MFI was 430000.

And the MFI (007m-DS (RSV))?
The MFI was 144000.

And the MFI [2]?
Its MFI is 206000.

And the MFI [3]?
Its MFI is 55800.

And the MFI [4]?
The MFI was 7590.

What about the MFI [5] of the same substance?
Its MFI is 4430.

And the MFI [6]?
The MFI was 47600.

And the MFI [7]?
Its MFI is 814.

And the MFI [8]?
Its MFI is 182.

And the MFI [9]?
Its MFI is 4100.

What about the MFI [10] of the same substance?
The MFI was 11200.

And the MFI [11]?
Its MFI is 5060.

And the MFI (RSV B-003m-P215S (RSV B))?
The MFI was 353000.

And the MFI (003m-P215S-1×GCN4t-3N)?
Its MFI is 25100.

What about the MFI (003m-P215S-1×GCN4t-2,3N) of the same substance?
The MFI was 39100.

And the MFI [12]?
Its MFI is 242000.

What about the MFI (003m-P215S-1×GCN4t (RSV) [13]) of the same substance?
Its MFI is 30100.

What about the MFI (003m-P215S-1×GCN4t (RSV) [14]) of the same substance?
Its MFI is 6700.

What about the MFI [15] of the same substance?
The MFI was 8650.

And the MFI (013m-Cys-P215S-1×GCN4t)?
The MFI was 7930.

What about the MFI [16] of the same substance?
Its MFI is 9780.

What about the MFI [17] of the same substance?
Its MFI is 6450.

And the MFI (011m-Cys-P215S-1×GCN4t)?
The MFI was 7710.

And the MFI (012m-Cys-P215S-1×GCN4t)?
Its MFI is 9390.

And the MFI [18]?
Its MFI is 7680.

What about the MFI [19] of the same substance?
Its MFI is 201000.

And the MFI (003m-P215S-1×GCN4t (RSV) [20])?
Its MFI is 2980.

For D25-AF488 (antibody), which MFI (003m-P215S-1×GCN4t (RSV) [1]) is on record?
The MFI was 5680.

What about the MFI (003m-DS (RSV)) of the same substance?
Its MFI is 37100.

What about the MFI (008m-Cys (RSV)) of the same substance?
The MFI was 196000.

What about the MFI (010m-Cys (RSV)) of the same substance?
Its MFI is 252000.

What about the MFI (008m-DS (RSV)) of the same substance?
Its MFI is 150000.

What about the MFI (003m-ΔCys (RSV)) of the same substance?
The MFI was 16200.

And the MFI (009m-Cys-ΔCys (RSV))?
Its MFI is 136000.

And the MFI (DS-Cav1 (RSV))?
The MFI was 159000.

What about the MFI (008m-Cys-ΔCys (RSV)) of the same substance?
The MFI was 173000.

What about the MFI (007m-Cys (RSV)) of the same substance?
Its MFI is 229000.

What about the MFI (009m-Cys (RSV)) of the same substance?
The MFI was 199000.

What about the MFI (010m-DS (RSV)) of the same substance?
The MFI was 118000.

And the MFI (010m-Cys-ΔCys (RSV))?
Its MFI is 136000.

What about the MFI (009m-DS (RSV)) of the same substance?
The MFI was 154000.

And the MFI (007m-Cys-ΔCys (RSV))?
The MFI was 369000.

What about the MFI (007m-DS (RSV)) of the same substance?
The MFI was 159000.

What about the MFI [2] of the same substance?
Its MFI is 138000.

And the MFI [3]?
Its MFI is 36900.

What about the MFI [4] of the same substance?
Its MFI is 7160.

And the MFI [5]?
Its MFI is 16000.

And the MFI [6]?
The MFI was 93500.

And the MFI [7]?
The MFI was 2110.

What about the MFI [8] of the same substance?
Its MFI is 515.

What about the MFI [9] of the same substance?
The MFI was 4220.

And the MFI [10]?
Its MFI is 13100.

And the MFI [11]?
Its MFI is 6190.

What about the MFI (RSV B-003m-P215S (RSV B)) of the same substance?
Its MFI is 265000.

And the MFI (003m-P215S-1×GCN4t-3N)?
The MFI was 43400.

What about the MFI (003m-P215S-1×GCN4t-2,3N) of the same substance?
Its MFI is 70700.

And the MFI [12]?
The MFI was 235000.

And the MFI (003m-P215S-1×GCN4t (RSV) [13])?
The MFI was 54200.

What about the MFI (003m-P215S-1×GCN4t (RSV) [14]) of the same substance?
Its MFI is 12200.

And the MFI [15]?
The MFI was 13400.

What about the MFI (013m-Cys-P215S-1×GCN4t) of the same substance?
The MFI was 14600.

And the MFI [16]?
Its MFI is 15700.

And the MFI [17]?
Its MFI is 11500.

What about the MFI (011m-Cys-P215S-1×GCN4t) of the same substance?
The MFI was 10300.

What about the MFI (012m-Cys-P215S-1×GCN4t) of the same substance?
The MFI was 15800.

What about the MFI [18] of the same substance?
The MFI was 12800.

What about the MFI [19] of the same substance?
The MFI was 132000.

And the MFI (003m-P215S-1×GCN4t (RSV) [20])?
The MFI was 4620.
